From US20110053163A1, “Biomarker” (BIOVATOR TECHNOLOGIES AB, priority 2007, published 2011)

What was measured:
MonoMac-6 cells = assay: Cytokine Profile Assay (CPA): neopterin production by stimulated MonoMac-6 cells, ELISA; type: cell-based, human; conditions: with IFN-γ 100 U/ml
Excerpt: (§1) The instructions of the manufacturers were followed. All these tests are enzyme immunoassays (EIA:s). The principle is that microtiter plate wells are labelled with a cytokine specific capture antibody. If cytokine is present in the samples added to the wells it will be captured to the bottom of the well. […] The reaction is thereafter measured as colour developed after addition of a substrate for the enzyme. The values for the test wells are compared with a standard curve obtained by adding a series of known amounts of cytokine. The values obtained for control wells with no substance added are used as background values for cytokine levels.
(§2) The myelomonocytic cell line MonoMac-6 (obtained from DSMZ, accession number ACC 124, Prof. H. W. L. Ziegler-Heitbrock, Inst. For Immunology, University of Munich, Munich) was cultured in cell culture flasks (Corning). Cells were cultured in RPMI 1640 medium (Gibco BRL), containing 20 mM HEPES and L-glutamine and supplemented with 10% heat-inactivated foetal bovine serum (Gibco BRL), penicillin (100 U/mL; Sigma-Aldrich), streptomycin (100 μg/mL; Sigma-Aldrich), sodium pyruvate (1.0 mM;Gibco BRL), human insulin (9 μg/mL; Gibco BRL) and non-essential amino acids (Gibco BRL) or cultured in Panserin 411 (Pan Biotech) supplemented with penicillin (100 U/mL), streptomycin (100 μg/mL).
The cells were split approximately 1:3 the day before stimulation. The stimulation procedure was performed in three steps. The first step was pre-dilution of test substances, to double the final concentration, in cell culture medium. Furthermore, Interferon-γ (IFN-γ) (100 U, PreproTech) was added in the cell culture media for 24 or 48 hours during stimulation of cells with test substances. The number of cells was then determined by trypan blue exclusion and the cells were diluted to twice the final test concentration (2×10^6 cells/mL) if not otherwise indicated and 100 μl of cell suspension was added per well in 96 well tissue culture plates (Corning). Finally, a 100 μl of pre-diluted test substance (triplicate cultures) was added to the tissue culture plates. […] The stimulated cells were cultured at 37° C., 5% CO2, for 24 or 48 hours. The cell suspension was transferred to new cell culture plates and stored at −20° C. until analyzed. Thereafter the cell suspension was analyzed for presence of neopterin and IL-10 by ELISA (IBL-Hamburg) following the manufacturers instructions.

MM6-cells = assay: CPA: IL-10 levels of stimulated MM6 cells, ELISA; type: cell-based, human; conditions: 25-200 μg/ml; 48 hours; with IFN-γ 100 U/ml
Excerpt: as §1, §2
The cells were split approximately 1:3 the day before stimulation. The stimulation procedure was performed in three steps. The first step was pre-dilution of test substances, to double the final concentration, in cell culture medium. […] The number of cells was then determined by trypan blue exclusion and the cells were diluted to twice the final test concentration (2×10^6 cells/mL) if not otherwise indicated and 100 μl of cell suspension was added per well in 96 well tissue culture plates (Corning). […] The cell suspension was transferred to new cell culture plates and stored at −20° C. until analyzed. Thereafter the cell suspension was analyzed for presence of neopterin and IL-10 by ELISA (IBL-Hamburg) following the manufacturers instructions.

[1] = serum free Panserin media, 48 hrs

Row | Molecule | neopterin response (in words) (MonoMac-6 cells; [1]) | neopterin response (in words) (MonoMac-6 cells; proteins, RPMI+10% FCS, 24 hrs, over the tested concentrations) | neopterin response (in words) (MonoMac-6 cells; serum free Panserin media, 24 hrs) | IL-10 levels (in words) (MM6-cells)
1 | Gal d 3: native allergen component from Phadia (Conalbumin, Egg, white) (protein, UniProt P02789 20-705, looked up) Ovotransferrin: APPKSVIRWCTISSPEEKKCNNLRDLTQQERISLTCVQKATYLDCIKAIANNEADAISLDGGQAFEAGLAPYKLKPIAAEVYEHTEGSTTSYYAVAVVKKGTEFTVNDLQGKTSCHTGLGRSAGWNIPIGTLLHRGAIEWEGIESGSVEQAVAKFFSASCVPGATIEQKLCRQCKGDPKTKCARNAPYSGYSGAFHCLKDGKGDVAFVKHTTVNENAPDQKDEYELLCLDGSRQPVDNYKTCNWARVAAHAVVARDDNKVEDIWSFLSKAQSDFGVDTKSDFHLFGPPGKKDPVLKDLLFKDSAIMLKRVPSLMDSQLYLGFEYYSAIQSMRKDQLTPSPRENRIQWCAVGKDEKSKCDRWSVVSNGDVECTVVDETKDCIIKIMKGEADAVALDGGLVYTAGVCGLVPVMAERYDDESQCSKTDERPASYFAVAVARKDSNVNWNNLKGKKSCHTAVGRTAGWVIPMGLIHNRTGTCNFDEYFSEGCAPGSPPNSRLCQLCQGSGGIPPEKCVASSHEKYFGYTGALRCLVEKGDVAFIQHSTVEENTGGKNKADWAKNLQMDDFELLCTDGRRANVMDYRECNLAEVPTHAVVVRPEKANKIRDLLERQEKRFGVNGSEKSKFMMFESQNKDLLFKDLTKCLFKVREGTTYKEFLGDKFYTVISSLKTCNPSDILQMCSFLEGK | increased in a dose dependent manner |  |  | 
2 | Alt a 1: native allergen component from Phadia (Alternaria) (protein, UniProt P79085 19-157, looked up) Major allergen Alt a 1: APLESRQDTASCPVTTEGDYVWKISEFYGRKPEGTYYNSLGFNIKATNGGTLDFTCSAQADKLEDHKWYSCGENSFMDFSFDSDRSGLLLKQKVSDDITYVATATLPNYCRAGGNGPKDFVCQGVADAYITLVTLPKSS | increased in a dose dependent manner | increased in a dose dependent manner | increased in a dose dependent manner | induced increased IL-10 levels in a dose dependent manner
3 | Der p 1: allergenic protein tested for IL-10 induction (protein, UniProt P08176 99-320, looked up) Peptidase 1: TNACSINGNAPAEIDLRQMRTVTPIRMQGGCGSCWAFSGVAATESAYLAYRNQSLDLAEQELVDCASQHGCHGDTIPRGIEYIQHNGVVQESYYRYVAREQSCRRPNAQRFGISNYCQIYPPNVNKIREALAQTHSAIAVIIGIKDLDAFRHYDGRTIIQRDNGYQPNYHAVNIVGYSNAQGVDYWIVRNSWDTNWGDNGYGYFAANIDLMMIEEYPYVVIL |  |  |  | induced increased IL-10 levels in a dose dependent manner
4 | Gal d 2: native allergen component from Phadia (Ovalbumin, Egg white) (protein, UniProt P01012 2-386, looked up) Ovalbumin: GSIGAASMEFCFDVFKELKVHHANENIFYCPIAIMSALAMVYLGAKDSTRTQINKVVRFDKLPGFGDSIEAQCGTSVNVHSSLRDILNQITKPNDVYSFSLASRLYAEERYPILPEYLQCVKELYRGGLEPINFQTAADQARELINSWVESQTNGIIRNVLQPSSVDSQTAMVLVNAIVFKGLWEKAFKDEDTQAMPFRVTEQESKPVQMMYQIGLFRVASMASEKMKILELPFASGTMSMLVLLPDEVSGLEQLESIINFEKLTEWTSSNVMEERKIKVYLPRMKMEEKYNLTSVLMAMGITDVFSSSANLSGISSAESLKISQAVHAAHAEINEAGREVVGSAEAGVDAASVSEEFRADHPFLFCIKHIATNAVLFFGRCVSP | increased in a dose dependent manner |  |  | induced increased IL-10 levels in a dose dependent manner
